This passage reports protease stability score results from the NTF2 design screens of Basanta et al. (2020).

A short description of this data set: protease stability score; higher = more stable; yeast display proteolysis, trypsin and chymotrypsin.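 Also: relative to predicted unfolded state with 0 unfolded-like and 1 meaning tenfold more protease.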
“DETKDDSDWAVELWEKLFKTGDEHLHERLADPHTRKEVGDKEFHGRELILKQFVEFVEKVKNIQLEFTHVKEQGEKVEMDTTLRIDGVRIRTKMIALKIDGVWLVKIIHIE” gave a protease stability score of 0.964.

In turn, “DETKEAFDRAIEKLSRWMFTGDEDKVDHLMDPDVRIEQGDKELHGMEDARRYLTEIRVKVRDMKITHMRIYDGRIDIDGETHLEVKVGDKHLHIDTRVYIDSYKVDGRWFFHEIRIK” gave a protease stability score of 0.98. Sequence “DETKEAIDRLFEVIHRMMITGDEHEFMKLVDPNVKVIQGEKIYHGREVIVNMLREILKWAGVENIQSHLDPERVHIQGDKLLVRGRLELRIGDKSEERDVEFVVVKVDGRWLIRVWKIE” gave a protease stability score of 2.74. In the case of “DETKEDTNRWIEHELRALKTGNWKEQFKNLDPNVRMHLHVGDKNKDLHGREKVTTELRRLFEEFGIKHIHLTNFEVQGDKIHLIMHIEVDGRHIELHLIVTKIDGKWHMESIEMHFR”, the protease stability score worked out at 0.866. “DETKEHVHNWMELVVHWYETGDEEEILKNADPNVRTIFNGVDYHGWEHLEEILKKIRHFFKNARVEIERIEIQGDKLILDVNVEINGQRDTLHIHVKVVDGVMKNLEIRHG” came in with a protease stability score of 1.59. “DETKEKVRIALELLETLHRTGDEDKFLELADPHYQLHINGQTVIGRETIYELLVRFLHHLGATSEVRIRSVDWQGDKIIVDMRLHFRVGDKSFEIQVHIYILKVNGKWLIESIEIR” yielded a protease stability score of 1.68. Consider “DETKEQSDEFIRIWVKARRTGDEHKLRRLIDPNVRVLINGKDLIGMDRALEIIEMFRKEFGIDHMHFTVRHVDIFNGVAISDFKVEINFNGREHEFTTHLVNLKIDGVWHTHSMEFH”, for which the protease stability score was 0.546.

In the case of “DETKEYAKEMFEILKESLETGDWKKIRHLADPNVRLHIGEFEHHGWKEFIHFFREFLHHLRLEDVETKHIEVQGDKMILRTTLHLRQGDKSRDLDVIIIYRKIDGRWMLHSVEIR”, the protease stability score was 1.4. “DETKHHHDRLFEEEAKAIATGDWEKLKELLDPHVRFEVGNKEIHGMETVLEEIERDLKRLGVTKQEVRIVIDKVDIQGEKIVSDFTLRLHFDGVTIEHKVHVIEVKIDGRWLIQSIRIE” registered a protease stability score of 1.53.

As for “DETKQETDRLVKMMLHAITTGDEKFIHHLIDPNVRLEVGDKSFHGREDAFEMLRKEWEDLGVKVYKPETYKSQGDWVHFHGKEHVGDKEIELNIHIHVVDGKIKFIRIEIH”, the protease stability score is 1.2. The same measure for “DETNKTLKEVFRELVHSLFTGDEERLTELADPHARFHQGEKELHGREEISKEMSRMIERADHVKIILTHMEVQGDKIIIEGHLEIRVDGRRIDVSTTLILHKVNGRWFITEIHII”: 0.241; for “DETQELAEEIVRKMIENWLTGNEEELHKMADPHVRVHINGVDLHGREVWEKWVHDELEKIPGIRREFELKRLEIYGDYIDIDGILILTFNGRKHTHKVRIHLHIVDGKLHRLEIRNK”: 1.28.

As to “DETREESYEFLWKLIHNWQTGNEDRLDELIDPHVRLVVGDKNHHGREELIELIREILERADHLRMRMRHFRVQGDKAEVDTRLQMEIGDKSIDTETHVRIIVVDGRVKYLEYEIK”, the protease stability score came to 0.459. In turn, “DETREEVYEMAVRILENEITGDWKKLYDLVDPDTRLDINGRHVIGREEMIKLFEWWLKHIRIKEIRLSHVEAVNGKADLKSNVHGTIDGVEHDVRRTIHIDIVDGRVKRIEVRTR” yielded a protease stability score of 1.29.

“DETREHTEHIMNIILHALHTGDEHLIRDMIDPHVRWELIIDGQTHNHIGRDEWEKLLEELGIDRIEVILKRFRIFENHSEVKGTIHINGKDADVVIYILVINGKIKEIRIIHV” registered a protease stability score of 2.19.

“DETREIAIKMIELWIHAVKTGDEDRMTELLDPNALLIIGDKKIHGRENLLRFWKRIDHHHLRHIEIKEITFFNGQVEDDGIVEEELRVNGREFEIDSRVLYILKKVDGRWIMRTIEVK” registered a protease stability score of 1.88. To “DETRELLDRLWERLVKALRTGDEDHVHDMLDPHVRIEIGDKILHGREALEVLWKRIDHISIHDFKLKRERRFENRIEVDGEVDGIVRIDGRENRHVTDTHYILVKIDGQWLIKTIHIK” belongs 2.29; to “DETRETLERFWHILVRAEKTGDERIFYEMLDPNAQLNVNGRTFHGREILVKIFHEWRVHDSEIREIDIQGDKVDMHVHSDIQVGDKRIRTDMRIIMVKIDGKWLIRTLKVE”, 2.16; to “DETRRHTEELFHWLLRAFMTGDFKLSYDNADPDVRFIINGRRDHGRDLYVRDLRHMRVHDSKVNHIHFEFQGDWAVVRVDGHIFGEYDGQHFNLRVEIRIIINKIDGRWSLESVEIRIH”, 0.812. Turning to “DETSREEEEHARLWTHAWLTGDEELFKKLADPHVKTEIDGRDLIGRDEMTRMFHDLLRELGVKHSTIEEIHIVNGRVEIRISIEVDGRPIKVRIHVEFFNGRVQRIQIRYE”, the protease stability score is 0.903. For “DETTDEMDKSLERFLDVVRTGDEHEDVHLADPHARIEFENRDIHGMKEHASQRIRVMLKFGWEVHIKFRHLRQVDGRLDVRLELRIKFDGVLYHLDTNEYWRKFDGRWVLDSMEFH”, the protease stability score came to 1.24.

“DETTEDDRRRYEEFLMAEITGDFHLVEKLHDPDVRFVLVIGDKIHIHHGREDVRKWIEHDFRKFKNARIELHDVKAYDGRVEIHGRVQVDGVRFDVHITIIIINGRVKEQRLNIR” showed a protease stability score of 2.12. “DETTEHMVHFFKETLHAIRTGDFKAQEELFDPNARVDVGDYKFHGRETISEWLRRRNEQLGFKHIEIRINHVEYINGKISVIGSVDSDINGVRIRHERREEYVVINGVLTLVRLEHR” displayed a protease stability score of 1.12.

In turn, “DETTEHVRKLTELLLRSWVTGDEETDEKMADPNVRIIFEGREVHGMHWFSRVVKELRIEHVQIHDERFKVFEGRAEMRVDTHLRGTQGNYHDERKVRVEIHIIKVNGRWHLETIRVSVH” yielded a protease stability score of 1.21. Sequence “DETTEIQEKLAKELMRLLLTGNEEEIMKNADPDVREHVLVDGKHINNIGREEVHRVRRELLEKVKNLRIRINRVEIQGEKVRMETTLHIDGQDIHVIYIFIIINGRIKEVHIEIR” came in with a protease stability score of 0.708. In turn, “DETTEKNERYIERLHHYLETGNEEELLHLFDPNTKFVQGDKEIIGREEVRHWEEEKRRKMGIKHWDFEFRRVRIIGEKLIIHGKEIINFENHRLERTVEIHLLLIDGRVKEVVYHVN” yielded a protease stability score of 1.2. The same measure for “DETTELAREAIELLVKSLRTGDWDTSSRLLDPHTRYHYGEFNSHGREMFIISLEFLWKHLRIEDVHITHIRSIGDKVDVDTVLRVNVNGQVVDVEFFIHAHKVNGKWLYTEIRVR”: 1.16; for “DETTELTQTVSQVFLDIWRTGDEDALRHLADPNTRLEVGEKTFHGRERVTEYVSRFKNVTVHLRRVTVQGNKVHIDSEMDFNGRKSDLHVELLVVDGRLKEIHVDIRWL”: 1.84; for “DETTELVHEVWRVHLESLMTGDFDKFHELADPNAKVDVHYDGRRDDNHGREKLSHQIKRILQEWRVTIRINREDAIGNKLHVDSDLRVNYDGVEIRVRLLSIIVVVNGRFKSIEYHVL”: 1.29.

“DETTELVHRLIELFLNSLHTGDEKTMVKLADPHARVEVRINGRKEEYHGMEHWSEHLIRRLEHLRIEIRIHDMQWFEGHAQVHTELIVRYDGKEMRTSVQVHLFIVNGRFKSSIVIIH” had a protease stability score of 1.05. The same measure for “DETTETLLRISESNIRNWETGDFDTIKQLLDPHVRMEQGDKTNHGRERVAKSWTEFLRELRLKTVHLHEVDVQGEKALSHVILFVKIGDKKIEVEAHLLVVVIDGKVSSIHITIK”: -0.305; for “DETTHELEWFTKIVAHAIETGDFEVMLNLIDPNVRVQEIIDGREIEFHGWHAFEHWMRKFKNITIIIRHVHHQGNKVEIEGEIDFNGKRRDVRIRFHVWNGRVKEFRHEER”: 1.52. Take “DETTKLTEELLRLIWEVLITGDEHLFERLADPHVRVDEIYGDKRIELHGRERVSTRLHELRIKRVELKEIEVFNGRSHANTHVNGHIDGVTFRSDTRWEFVMIDGKLEEVRRKIE”: the protease stability score came out at 0.597.
